Assay [1] deals with humanized Archaeoglobus ferritin (HumFt) (Archaeoglobus fulgidus | human). The assay is described as follows: SEC; HP-SEC with UV (220, 410 nm) and fluorimetric detection; ferritin dissociated without MgCl2, mixed with a 20 fold molar excess of Cyt C, re-assembled with 50 mM MgCl2; mobile phase 20 mM HEPES pH 7.4, 50 mM MgCl2; Cyt C signal at the retention time of the ferritin 24-mer (encapsulation in the cavity). (Size exclusion chromatography separates by hydrodynamic size, large species first.)

Assay [2] addresses carboxymethylated humanized ferritin (S-CMHumFt) (Archaeoglobus fulgidus | human). The description is as above.

Consider one substance from paper PMC6692331.

As a reminder, the stoichiometry N is a count of units in the complex or per binding partner.

Take “cytochrome C from equine heart (from UniProt P00004 1-105) (natural protein)”: the stoichiometry N in assay [1] is 0.43 Cyt C:HumFt; in assay [2] it was 1.4 Cyt C:HumFt.
